Reference: US20180155451A1 (published 2018)

T1: FcγRIIb extracellular domain with C-terminal His tag (human, UniProt P31994 43-217)
T1 construct: extracellular domain; expressed in FreeStyle293 cells; analyte in the Biacore assay; also called FcgRIIb; 2b; not shown: His tag at the C terminus
T1 sequence (looked up): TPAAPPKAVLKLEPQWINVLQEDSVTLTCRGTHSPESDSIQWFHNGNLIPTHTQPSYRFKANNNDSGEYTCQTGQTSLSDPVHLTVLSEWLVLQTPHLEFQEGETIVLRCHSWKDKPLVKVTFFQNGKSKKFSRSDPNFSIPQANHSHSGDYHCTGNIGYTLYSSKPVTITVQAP


target: T1, FcγRIIb extracellular domain with …; experiment: SPR (Biacore), captured antibody, FcγRIIb analyte; binding relative to GpH7-A5/GpH7-B3/GpL16-k0 = 100

Row | Binder | He/Con_2b
1 | GpH7-A5/GpH7-B3 variant K326_09D/GpL16-k0 (antibody, human IgG1, kappa, heterodimerized; mutation in the B3 H chain only; also called He Ab K326_09D) heavy 1: not shown heavy 2: not shown light: DIVMTQSPLSLPVTPGEPASISCQASESLVHSNRNTYLHWYLQKPGQSPQLLIYKVSNRFSGVPDRFSGSGSGTDFTLKISRVEAEDVGVYYCSQNTHVPPTFGQGTKVEIERTVAAPSVFIFPPSDEQLKSGTASVVCLLNNFYPREAKVQWKVDNALQSGNSQESVTEQDSKDSTYSLSSTLTLSKADYEKHKVYACEVTHQGLSSPVTKSFNRGEC | 193 % of control
2 | GpH7-A5/GpH7-B3 variant K326_10E/GpL16-k0 (antibody, human IgG1, kappa, heterodimerized; mutation in the B3 H chain only; also called He Ab K326_10E) heavy 1: not shown heavy 2: not shown light: DIVMTQSPLSLPVTPGEPASISCQASESLVHSNRNTYLHWYLQKPGQSPQLLIYKVSNRFSGVPDRFSGSGSGTDFTLKISRVEAEDVGVYYCSQNTHVPPTFGQGTKVEIERTVAAPSVFIFPPSDEQLKSGTASVVCLLNNFYPREAKVQWKVDNALQSGNSQESVTEQDSKDSTYSLSSTLTLSKADYEKHKVYACEVTHQGLSSPVTKSFNRGEC | 200 % of control
3 | GpH7-A5/GpH7-B3 variant K326_14T/GpL16-k0 (antibody, human IgG1, kappa, heterodimerized; mutation in the B3 H chain only; also called He Ab K326_14T) heavy 1: not shown heavy 2: not shown light: DIVMTQSPLSLPVTPGEPASISCQASESLVHSNRNTYLHWYLQKPGQSPQLLIYKVSNRFSGVPDRFSGSGSGTDFTLKISRVEAEDVGVYYCSQNTHVPPTFGQGTKVEIERTVAAPSVFIFPPSDEQLKSGTASVVCLLNNFYPREAKVQWKVDNALQSGNSQESVTEQDSKDSTYSLSSTLTLSKADYEKHKVYACEVTHQGLSSPVTKSFNRGEC | 150 % of control
4 | GpH7-A5/GpH7-B3 variant K326_15Y/GpL16-k0 (antibody, human IgG1, kappa, heterodimerized; mutation in the B3 H chain only; also called He Ab K326_15Y) heavy 1: not shown heavy 2: not shown light: DIVMTQSPLSLPVTPGEPASISCQASESLVHSNRNTYLHWYLQKPGQSPQLLIYKVSNRFSGVPDRFSGSGSGTDFTLKISRVEAEDVGVYYCSQNTHVPPTFGQGTKVEIERTVAAPSVFIFPPSDEQLKSGTASVVCLLNNFYPREAKVQWKVDNALQSGNSQESVTEQDSKDSTYSLSSTLTLSKADYEKHKVYACEVTHQGLSSPVTKSFNRGEC | 159 % of control
5 | GpH7-A5/GpH7-B3 variant K326_16H/GpL16-k0 (antibody, human IgG1, kappa, heterodimerized; mutation in the B3 H chain only; also called He Ab K326_16H) heavy 1: not shown heavy 2: not shown light: DIVMTQSPLSLPVTPGEPASISCQASESLVHSNRNTYLHWYLQKPGQSPQLLIYKVSNRFSGVPDRFSGSGSGTDFTLKISRVEAEDVGVYYCSQNTHVPPTFGQGTKVEIERTVAAPSVFIFPPSDEQLKSGTASVVCLLNNFYPREAKVQWKVDNALQSGNSQESVTEQDSKDSTYSLSSTLTLSKADYEKHKVYACEVTHQGLSSPVTKSFNRGEC | 119 % of control
6 | GpH7-A5/GpH7-B3 variant K326_19Q/GpL16-k0 (antibody, human IgG1, kappa, heterodimerized; mutation in the B3 H chain only; label printed K326_190, read as K326_19Q; also called He Ab K326_19Q) heavy 1: not shown heavy 2: not shown light: DIVMTQSPLSLPVTPGEPASISCQASESLVHSNRNTYLHWYLQKPGQSPQLLIYKVSNRFSGVPDRFSGSGSGTDFTLKISRVEAEDVGVYYCSQNTHVPPTFGQGTKVEIERTVAAPSVFIFPPSDEQLKSGTASVVCLLNNFYPREAKVQWKVDNALQSGNSQESVTEQDSKDSTYSLSSTLTLSKADYEKHKVYACEVTHQGLSSPVTKSFNRGEC | 139 % of control
7 | GpH7-A5/GpH7-B3 variant K326_20W/GpL16-k0 (antibody, human IgG1, kappa, heterodimerized; mutation in the B3 H chain only; also called He Ab K326_20W) heavy 1: not shown heavy 2: not shown light: DIVMTQSPLSLPVTPGEPASISCQASESLVHSNRNTYLHWYLQKPGQSPQLLIYKVSNRFSGVPDRFSGSGSGTDFTLKISRVEAEDVGVYYCSQNTHVPPTFGQGTKVEIERTVAAPSVFIFPPSDEQLKSGTASVVCLLNNFYPREAKVQWKVDNALQSGNSQESVTEQDSKDSTYSLSSTLTLSKADYEKHKVYACEVTHQGLSSPVTKSFNRGEC | 148 % of control
8 | GpH7-A5/GpH7-B3 variant K334_02A/GpL16-k0 (antibody, human IgG1, kappa, heterodimerized; mutation in the B3 H chain only; also called He Ab K334_02A) heavy 1: not shown heavy 2: not shown light: DIVMTQSPLSLPVTPGEPASISCQASESLVHSNRNTYLHWYLQKPGQSPQLLIYKVSNRFSGVPDRFSGSGSGTDFTLKISRVEAEDVGVYYCSQNTHVPPTFGQGTKVEIERTVAAPSVFIFPPSDEQLKSGTASVVCLLNNFYPREAKVQWKVDNALQSGNSQESVTEQDSKDSTYSLSSTLTLSKADYEKHKVYACEVTHQGLSSPVTKSFNRGEC | 108 % of control
9 | GpH7-A5/GpH7-B3 variant K334_03V/GpL16-k0 (antibody, human IgG1, kappa, heterodimerized; mutation in the B3 H chain only; also called He Ab K334_03V) heavy 1: not shown heavy 2: not shown light: DIVMTQSPLSLPVTPGEPASISCQASESLVHSNRNTYLHWYLQKPGQSPQLLIYKVSNRFSGVPDRFSGSGSGTDFTLKISRVEAEDVGVYYCSQNTHVPPTFGQGTKVEIERTVAAPSVFIFPPSDEQLKSGTASVVCLLNNFYPREAKVQWKVDNALQSGNSQESVTEQDSKDSTYSLSSTLTLSKADYEKHKVYACEVTHQGLSSPVTKSFNRGEC | 125 % of control
10 | GpH7-A5/GpH7-B3 variant K334_04F/GpL16-k0 (antibody, human IgG1, kappa, heterodimerized; mutation in the B3 H chain only; also called He Ab K334_04F) heavy 1: not shown heavy 2: not shown light: DIVMTQSPLSLPVTPGEPASISCQASESLVHSNRNTYLHWYLQKPGQSPQLLIYKVSNRFSGVPDRFSGSGSGTDFTLKISRVEAEDVGVYYCSQNTHVPPTFGQGTKVEIERTVAAPSVFIFPPSDEQLKSGTASVVCLLNNFYPREAKVQWKVDNALQSGNSQESVTEQDSKDSTYSLSSTLTLSKADYEKHKVYACEVTHQGLSSPVTKSFNRGEC | 111 % of control
11 | GpH7-A5/GpH7-B3 variant K334_05P/GpL16-k0 (antibody, human IgG1, kappa, heterodimerized; mutation in the B3 H chain only; also called He Ab K334_05P) heavy 1: not shown heavy 2: not shown light: DIVMTQSPLSLPVTPGEPASISCQASESLVHSNRNTYLHWYLQKPGQSPQLLIYKVSNRFSGVPDRFSGSGSGTDFTLKISRVEAEDVGVYYCSQNTHVPPTFGQGTKVEIERTVAAPSVFIFPPSDEQLKSGTASVVCLLNNFYPREAKVQWKVDNALQSGNSQESVTEQDSKDSTYSLSSTLTLSKADYEKHKVYACEVTHQGLSSPVTKSFNRGEC | 105 % of control
